First the molecules themselves.
B1: TPR t1 (parent)
chain: GACCAAUCUGCCCUCAGAGCUCGAGAACAUCUUCGGAUGCAGAGGAGGCAGGCUUCGGUGGCGCGAUAGCGCCAACGUCCUCAACCUCCAAUGCAUCCCACCACAUGAUGAUGCCUGAAGAGCCUUGGUUUUUUG

Here are results for 21 variants from the RNAGym collection of RNA variant scans (doi:10.1073/pnas.2313332121).

The variants in this data set derive from B1. Nature of the data set: polymerase ribozyme fitness, log enrichment relative to wild type (log ratio); higher = more active; in vitro selection for triplet polymerase activity. The gist of the method:
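One round of in vitro selection, in triplicate, was applied to PCR-built, transcribed mutant libraries of each subunit of a heterodimeric triplet polymerase ribozyme. The steps were annealing with a biotinylated primer, partner subunit and triplets, incubation frozen at −7 °C, gel excision of extended constructs, streptavidin-bead capture and RT-PCR. Fitness is the logarithm, base 2, of genotype enrichment over wild-type enrichment from inverse-variance-weighted replicate averages of Illumina-sequenced inputs and outputs, keeping genotypes with ≥10 input reads and ≥1 read per output.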
As to GACCAAUCUGCCCUCAGAGCUCGAGAACAUCUUCGGAUGCAGAGGAGGCAGGCUUCGGUGGCGCGAUAGCGCCAACGUCCUCAACCUCCAAUGCAUCCCACCACAGGAUGAUGCCUGAAGAGUCUUAGUUUUUUG [U106G C123U G127A], the “polymerase ribozyme fitness (log ratio)” value was -3.09.
Take GACCAAUCUGCCCUCAGAGCUCGAGAACAUCUUCGGAUGCAGAGGAGGCAGGCUUCGGUGGCGCGAUAGCGCCAACGUCCUCAACCUCCAAUGCAUCCCACCACAAGAUGCUGCCUGAAGAGCCUUGGUUUUUUG [U106A A111C]: the “polymerase ribozyme fitness (log ratio)” value is -1.96.
Regarding GACCAAUCUGCCCUCAGAGCUCGAGAACAUCUUCGGAUGCAGAGGAGGCAGGCUUCGGUGGCGCGAUAGCGCCAACGUCCUCAACCUCCAAUGCAUCCCACCACACGAUGAUGCCUGUAGAGCCUUGGUUUUUUG [U106C A118U], the “polymerase ribozyme fitness (log ratio)” value is -0.171.
Consider GACCAAUCUGCCCUCAGAGCUCGAGAACAUCUUCGGAUGCAGAGGAGGCAGGCUUCGGUGGCGCGAUAGCGCCAACGUCCUCAACCUCCAAUGCAUCCCACCACAAGAUGAUGCCUGAAGAGCCUUGGAUUUUUG [U106A U129A], for which the “polymerase ribozyme fitness (log ratio)” value is -1.17.
Regarding GACCAAUCUGCCCUCAGAGCUCGAGAACAUCUUCGGAUGCAGAGGAGGCAGGCUUCGGUGGCGCGAUAGCGCCAACGUCCUCAACCUCCAAUGCAUCCCACCGCAUGAUGAUGCUUGAAGAGCCUUGGGUUUAUG [A103G C115U U129G U133A], the “polymerase ribozyme fitness (log ratio)” value was -5.83.
Then GACCAAUCUGCCCUCAGAGCUCGAGAACAUCUUCGGAUGCAGAGGAGGCAGGCUUCGGUGGCGCGAUAGCGCCAACGUCCUCAACCUCCAAUGCAUCCCACCACUUGAUGAUGCCUGAAGAGCCUUGGUUUUUUU [A105U G135U], with -2.99; and GACCAAUCUGCCCUCAGAGCUCGAGAACAUCUUCGGAUGCAGAGGAGGCAGGCUUCGGUGGCGCGAUAGCGCCAACGUCCUCAACCUCCAAUGCAUCCCACCACUUGAUGAUGCCUGAAGAGCCUUGGUUUUUUC [A105U G135C], with -2.07; and GACCAAUCUGCCCUCAGAGCUCGAGAACAUCUUCGGAUGCAGAGGAGGCAGGCUUCGGUGGCGCGAUAGCGCCAACGUCCUCAACCUCCAAUGCAUCCCACCAAAUGGUGAAGCCUGGAGAUCCUUGGUUUUUUG [C104A A108G U112A A118G G122U], with -5.36.
Then GACCAAUCUGCCCUCAGAGCUCGAGAACAUCUUCGGAUGCAGAGGAGGCAGGCUUCGGUGGCGCGAUAGCGCCAACGUCCUCAACCUCCAAUGCAUCCCACCAUAUGAUAAUGCCUGAAGAGCCUUGGUUUUUUG [C104U G110A], with -0.458; and GACCAAUCUGCCCUCAGAGCUCGAGAACAUCUUCGGAUGCAGAGGAGGCAGGCUUCGGUGGCGCGAUAGCGCCAACGUCCUCAACCUCCAAUGCAUCCCACCGCAUGAUGAGGCCUGAAGAGCCUUGGUUUUUUG [A103G U112G], with -4.71.
Turning to GACCAAUCUGCCCUCAGAGCUCGAGAACAUCUUCGGAUGCAGAGGAGGCAGGCUUCGGUGGCGCGAUAGCGCCAACGUCCUCAACCUCCAAUGCAUCCCACCACCUGAUGAUGCCUGAAAUGCCUUGGUUUUUUG [A105C G120A A121U], the “polymerase ribozyme fitness (log ratio)” value was -1.51.
Turning to GACCAAUCUGCCCUCAGAGCUCGAGAACAUCUUCGGAUGCAGAGGAGGCAGGCUUCGGUGGCGCGAUAGCGCCAACGUCCUCAACCUCCAAUGCAUCCCACCAAAUGAUGAUGCCUGAAGAACCUUGGUUUUUUG [C104A G122A], the “polymerase ribozyme fitness (log ratio)” value was -2.31.
With GACCAAUCUGCCCUCAGAGCUCGAGAACAUCUUCGGAUGCAGAGGAGGCAGGCUUCGGUGGCGCGAUAGCGCCAACGUCCUCAACCUCCAAUGCAUCCCACCACAGGAUCACGCCUGAAGAGCCUUGGUUUUUUG [U106G G110C U112C], the “polymerase ribozyme fitness (log ratio)” value was -5.6.
As to GACCAAUCUGCCCUCAGAGCUCGAGAACAUCUUCGGAUGCAGAGGAGGCAGGCUUCGGUGGCGCGAUAGCGCCAACGUCCUCAACCUCCAAUGCAUCCCACCAGAAGAUGAUGCCUGAAGAGCGUUGGUUUUUUG [C104G U106A C124G], the “polymerase ribozyme fitness (log ratio)” value is -3.47.
As for GACCAAUCUGCCCUCAGAGCUCGAGAACAUCUUCGGAUGCAGAGGAGGCAGGCUUCGGUGGCGCGAUAGCGCCAACGUCCUCAACCUCCAAUGCAUCCCACCACUUGAUGAUGCCUGAAGAGCCUAGGAGUUUUG [A105U U126A U129A U130G], the “polymerase ribozyme fitness (log ratio)” value was -6.
As for GACCAAUCUGCCCUCAGAGCUCGAGAACAUCUUCGGAUGCAGAGGAGGCAGGCUUCGGUGGCGCGAUAGCGCCAACGUCCUCAACCUCCAAUGCAUCCCACCACAAGAUGAUGCCUUAAGAGCCUUUGUUUUUUG [U106A G117U G127U], the “polymerase ribozyme fitness (log ratio)” value was -0.344.
Turning to GACCAAUCUGCCCUCAGAGCUCGAGAACAUCUUCGGAUGCAGAGGAGGCAGGCUUCGGUGGCGCGAUAGCGCCAACGUCCUCAACCUCCAAUGCAUCCCACCACUUGAUGAUACCUGAAGAGCCUUGGUUUUUUG [A105U G113A], the “polymerase ribozyme fitness (log ratio)” value is -4.72.
Then GACCAAUCUGCCCUCAGAGCUCGAGAACAUCUUCGGAUGCAGAGGAGGCAGGCUUCGGUGGCGCGAUAGCGCCAACGUCCUCAACCUCCAAUGCAUCCCACCAAAUGAUGAUGCCAGAAGAGCCUUGGUUUUUUG [C104A U116A], with -5.02; and GACCAAUCUGCCCUCAGAGCUCGAGAACAUCUUCGGAUGCAGAGGAGGCAGGCUUCGGUGGCGCGAUAGCGCCAACGUCCUCAACCUCCAAUGCAUCCCACCACAAGAUGAUGCCUGAAGAGCAUUGGUUUUUUG [U106A C124A], with 1.81; and GACCAAUCUGCCCUCAGAGCUCGAGAACAUCUUCGGAUGCAGAGGAGGCAGGCUUCGGUGGCGCGAUAGCGCCAACGUCCUCAACCUCCAAUGCAUCCCACCACUUGAUGAUGCCCGAAGAGCCUUGGUUUUUUG [A105U U116C], with -3.7.
As for GACCAAUCUGCCCUCAGAGCUCGAGAACAUCUUCGGAUGCAGAGGAGGCAGGCUUCGGUGGCGCGAUAGCGCCAACGUCCUCAACCUCCAAUGCAUCCCACCAUAAGAUGAUGCCUGAAGAGCCUUGGUUUUUUG [C104U U106A], the “polymerase ribozyme fitness (log ratio)” value is -0.522.
